As usually defined, the IC50 is the concentration needed to halve the response being measured.

This data set deals with DICER;ARGONAUTE2 (AGO2) (human;human, UniProt Q9UPY3;Q9UKV8 1-1922;1-859, |). The data set is described as follows: competition (fluorogenic siRNA processing); 80 nM BoPsi664, 30 nM each enzyme; Assay Buffer with 1 mM free Mg2+ (full composition not in the material), 37 C; indirect read-out by competitive inhibition of fluorogenic siRNA processing, no d. As to conditions: protein: recombinant;recombinant, tags: C-terminal 6xHis with TEV site, tag removed by TEV;N-terminal 6xHis with TEV site.

Where [1] appears, read: copies: 1;1, 3' overhang 2 nt on strand 1, other end blunt.
[2] abbreviates: copies: 1;1, 3' overhang 2 nt on strand 2, other end blunt.

B1: D08 (dsRNA)
RNA 1: CCAGAAGAACUUUUAGGCCGCUCAAUU
RNA 2: UUGAGCGGCCUAAAAGUUCUUCUGG
As for B1, the IC50 under setting [1] stood at 1060 nM.

B2: D03 (dsRNA)
RNA 1: CCGGUUGAAUCUUCAGAUAUGAAAA
RNA 2: UUUUCAUAUCUGAAGAUUCAACCGGUU
Take B2: the IC50 under setting [2] worked out at 150 nM.

B3: D09 (dsRNA)
RNA 1: CAGACACCUAGUCCUUCCGAUGGAAGC
RNA 2: UUCCAUCGGAAGGACUAGGUGUCUG
On to B3, for which, under setting [1], the IC50 came out at 767 nM.

B4: D12 (dsRNA)
RNA 1: UACUCAGGACACAGAUUUAGACUUGGA
RNA 2: CAAGUCUAAAUCUGUGUCCUGAGUA
Turning to B4, under setting [1], the IC50 is 453 nM.

B5: D01 (dsRNA)
RNA 1: ACCGGUUGAAUCUUCAGAUAUGAAA
RNA 2: UUUCAUAUCUGAAGAUUCAACCGGUUU
Take B5: under setting [2], the half-inhibitory concentration (IC50) was 56 nM.

B6: D02 (dsRNA)
RNA 1: GCUGAUUUGUGAACCCAUUCCUCAC
RNA 2: GUGAGGAAUGGGUUCACAAAUCAGCAC
As for B6, the 50% inhibitory concentration (IC50) under setting [2] was 142 nM.

B7: D11 (dsRNA)
RNA 1: ACCUGAGCCUAAUAGUCCCAGUGAAUA
RNA 2: UUCACUGGGACUAUUAGGCUCAGGU
Take B7: the concentration for half-maximal inhibition (IC50) under setting [1] turned out to be 364 nM.

B8: D06 (dsRNA)
RNA 1: GGAUAGUGAUAUGGUCAAUGAAUUC
RNA 2: GAAUUCAUUGACCAUAUCACUAUCCAC
Take B8: under setting [2], the IC50 turned out to be 474 nM.

B9: D10 (dsRNA)
RNA 1: CCUGAGGAAGAACUAAAUCCAAAGAUA
RNA 2: UCUUUGGAUUUAGUUCUUCCUCAGG
B9: under setting [1], the half-maximal inhibitory concentration (IC50) came out at 633 nM.

B10: D05 (dsRNA)
RNA 1: GGAACAUGAUGGUUCACUUUUUCAA
RNA 2: UUGAAAAAGUGAACCAUCAUGUUCCAU
Consider B10, for which, under setting [2], the concentration for half-maximal inhibition (IC50) is 209 nM.

B11: D07 (dsRNA)
RNA 1: GGAUAAAAUUCUCAAUUCAGAGAAA
RNA 2: UUUCUCUGAAUUGAGAAUUUUAUCCAA
On to B11, for which the half-inhibitory concentration (IC50) under setting [2] amounted to 282 nM.

B12: D25 (dsRNA)
RNA 1: GCACCCCCACCUCUGGACUUGCCUUUC
RNA 2: AAGGCAAGUCCAGAGGUGGGGGUGC
On to B12, for which the IC50 under setting [1] came out at 796 nM.

B13: D04 (dsRNA)
RNA 1: GUUCCUGAGGAAGAACUAAAUCCAA
RNA 2: UUGGAUUUAGUUCUUCCUCAGGAACUG
Regarding B13, the IC50 under setting [2] is 180 nM.

The values are drawn from article PMC4368098, “DICER-ARGONAUTE2 Complex in Continuous Fluorogenic Assays of RNA Interference Enzymes”.
